Paper PMC3901395 (2013)
Substitutions are numbered along the chain they refer to. Like-named read-outs stand apart in the source and are kept apart here. One block for each binder: values may come before it.

Experiments:
Test in all cases: ITC
[1] = biological target: T1, mono-SUMO2 (UniProt P61956 12-93)
[2] = biological target: T2, linear di-SUMO2 (2×SUMO2-ΔN11) (UniProt P61956 12-95; P61956 12-95)
[3] = biological target: mono-SUMO1 (UniProt P63165 16-97)
[4] = biological target: T1, mono-SUMO2; remark: listed apart in the source
[5] = biological target: T3, linear tetra-SUMO2 (4×SUMO2-ΔN11) (UniProt P61956 12-95; P61956 12-95; P61956 12-95; P61956 12-95)
[6] = biological target: linear tri-SUMO (UniProt P61956 12-95; P61956 12-95; P61956 12-95)
[7] = biological target: T3, linear tetra-SUMO2 (4×SUMO2-ΔN11); remark: listed apart in the source
[8] = biological target: T2, linear di-SUMO2 (2×SUMO2-ΔN11); remark: listed apart in the source

T1 sequence (P61956 12-93): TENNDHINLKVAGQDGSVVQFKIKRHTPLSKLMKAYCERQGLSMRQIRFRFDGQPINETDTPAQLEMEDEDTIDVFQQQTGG
T2 sequence (P61956 other isoform, or with tags, fused parts or gaps mutant): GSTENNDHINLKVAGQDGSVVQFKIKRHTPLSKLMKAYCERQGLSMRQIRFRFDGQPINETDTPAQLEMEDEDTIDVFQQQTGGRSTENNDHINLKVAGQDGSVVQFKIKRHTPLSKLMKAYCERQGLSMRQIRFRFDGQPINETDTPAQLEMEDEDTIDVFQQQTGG
T3 sequence (P61956 other isoform, or with tags, fused parts or gaps mutant): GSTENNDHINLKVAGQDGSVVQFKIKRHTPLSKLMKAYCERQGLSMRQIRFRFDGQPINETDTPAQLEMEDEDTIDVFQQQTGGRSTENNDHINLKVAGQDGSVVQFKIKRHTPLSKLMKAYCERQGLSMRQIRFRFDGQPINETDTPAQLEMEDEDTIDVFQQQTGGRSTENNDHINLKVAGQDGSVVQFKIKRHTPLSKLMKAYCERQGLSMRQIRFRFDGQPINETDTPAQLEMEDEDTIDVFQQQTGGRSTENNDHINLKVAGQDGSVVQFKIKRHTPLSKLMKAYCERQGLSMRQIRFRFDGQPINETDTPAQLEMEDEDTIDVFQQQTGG
Chain of mono-SUMO1 (P63165 16-97): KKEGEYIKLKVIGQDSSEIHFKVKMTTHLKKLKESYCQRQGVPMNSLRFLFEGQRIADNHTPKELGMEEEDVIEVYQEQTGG
Chain of linear tri-SUMO (P61956 other isoform, or with tags, fused parts or gaps): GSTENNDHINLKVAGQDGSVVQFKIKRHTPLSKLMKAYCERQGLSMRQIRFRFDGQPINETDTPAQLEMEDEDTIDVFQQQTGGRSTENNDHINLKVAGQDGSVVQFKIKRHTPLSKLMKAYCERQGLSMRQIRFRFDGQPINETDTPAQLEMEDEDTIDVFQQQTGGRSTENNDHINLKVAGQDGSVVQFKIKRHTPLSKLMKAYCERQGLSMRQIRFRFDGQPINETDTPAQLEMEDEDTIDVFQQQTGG

B1: RNF4-SIM2/3 peptide (peptide)
chain: GDEIVDLTCESLEPVVVDLTHND
modifications: exact peptide ends are only in Figure 2A; limits taken as SIM2 and SIM3 (VDLT, VDLT) plus short flanks; end groups unknown
- Kd [1]: 106 µM

B3: RNF4-SIM domain SIM1/4 double mutant (domain or fragment)
chain: MSTRKRRGGAINSRQAQKRTREATSTPEISLEAEPAAAAETAGDEIVDLTCESLEPVVVDLTHNDSAAAADERRRPRRNARRLPQDHADSCVVSSDDEELSRDRDVYVTTHTPRNARDEGATGLR
- Kd [2]: 14 µM

B4: RNF4 1–125 (RNF4-SIM domain, wt) (domain or fragment)
chain: B3 chain with A36I, A37E, A38L, A39V, A67V, A68V, A69I, A70V
- Kd [3]: 123 µM
- Kd [4]: 145 µM

B5: RNF4-SIM domain SIM1/2 double mutant (domain or fragment)
chain: B3 chain with V47A, D48A, L49A, T50A, A67V, A68V, A69I, A70V
- Kd [5]: 1.6 µM

B6: RNF4-SIM1/2 peptide (peptide)
chain: EAEPIELVETAGDEIVDLTCESL
modifications: exact peptide ends are only in Figure 2A; limits taken as SIM1 and SIM2 (IELV, VDLT) plus short flanks; end groups unknown
- Kd [1]: 121 µM
- Kd [2]: 44 µM

B8: RNF4-SIM3/4 peptide (peptide)
chain: LEPVVVDLTHNDSVVIVDERR
modifications: exact peptide ends are only in Figure 2A; limits taken as SIM3 and SIM4 (VDLT, VVIV) plus short flanks; end groups unknown
- Kd [1]: 61 µM
- Kd [2]: 72 µM

More lines, now with the values ahead:

- Kd [2]: 16 µM
B2: RNF4-SIM domain SIM4 mutant (domain or fragment)
chain: B3 chain with A36I, A37E, A38L, A39V

- Kd [6]: 1.5 µM
- Kd [7]: 0.8 µM
- Kd [8]: 3.5 µM
B7: full-length RNF4 (natural protein)
chain: MSTRKRRGGAINSRQAQKRTREATSTPEISLEAEPIELVETAGDEIVDLTCESLEPVVVDLTHNDSVVIVDERRRPRRNARRLPQDHADSCVVSSDDEELSRDRDVYVTTHTPRNARDEGATGLRPSGTVSCPICMDGYSEIVQNGRLIVSTECGHVFCSQCLRDSLKNANTCPTCRKKINHKRYHPIYI
